Assay results: US20240343771A1 (Chugai, published 2024)

T1: human IL-12 (human, UniProt P29460 23-328; P29459 23-219)
T1 construct: also called Interleukin-12
T1 sequence 1: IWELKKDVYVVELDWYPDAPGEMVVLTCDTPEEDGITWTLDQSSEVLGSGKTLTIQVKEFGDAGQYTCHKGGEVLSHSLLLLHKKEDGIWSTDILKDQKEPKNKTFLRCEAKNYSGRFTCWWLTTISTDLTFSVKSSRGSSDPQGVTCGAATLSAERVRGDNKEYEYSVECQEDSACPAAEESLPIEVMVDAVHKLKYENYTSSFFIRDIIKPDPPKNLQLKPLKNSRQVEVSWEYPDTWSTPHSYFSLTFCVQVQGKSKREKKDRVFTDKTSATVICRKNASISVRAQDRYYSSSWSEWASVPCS
T1 sequence 2: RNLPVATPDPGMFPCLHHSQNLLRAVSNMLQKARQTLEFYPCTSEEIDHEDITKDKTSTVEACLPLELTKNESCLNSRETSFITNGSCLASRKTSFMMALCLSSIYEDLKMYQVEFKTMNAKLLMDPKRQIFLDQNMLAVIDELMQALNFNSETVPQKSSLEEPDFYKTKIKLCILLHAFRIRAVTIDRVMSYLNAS


Target: T1, human IL-12
Experiment: SPR (Biacore T200), 37 C, pH 7.4; captured antibody, IL-12 analyte
Experimental: The affinity of anti-IL-12 antibodies binding to human IL-12 at pH 7.4 were determined at 37 degrees C. using Biacore T200 instrument (Cytiva). Anti-human Fc antibody (Cytiva) was immobilized onto all flow cells (FCs) of a CM4 sensor chip using amine coupling kit (Cytiva). All antibodies and analytes were prepared in ACES pH 7.4 containing 20 mM ACES, 150 mM NaCl, 0.05% Tween 20, 0.005% NaN₃. Each antibody was captured onto the sensor surface by anti-human Fc antibody. Antibody capture levels were aimed at 50 response unit (RU). 5 nM of human IL-12 were injected as analyte, followed by dissociation. Sensor surface was regenerated each cycle with 3M MgCl₂. […] Based on the results in Table 9, it is observed that binding kinetics of anti-IL-12 antibody AbI variants towards IL-12 were not drastically changed compared to control (−/−).

Row | Binder | Kd [nM]
1 | Anti-IL-12 antibody Ab1 variant W103M VH/P44A, Y49A VL (antibody, name in Kabat numbering, Ab1 with VH/VL interface substitutions; Kabat numbering) heavy: not shown light: DIVMTQSPLSLPVTPGEPASISCRASQSISINLHWYQQKPGQAARLLIAFASQSISGVPSRFSGSGSGTDFTLTISSLQPEDFATYYCQQSNSFPLTFGQGTKVEIKRTVAAPSVFIFPPSDEQLKSGTASVVCLLNNFYPREAKVQWKVDNALQSGNSQESVTEQDSKDSTYSLSSTLTLSKADYEKHKVYACEVTHQGLSSPVTKSFNRGEC | 1.07
2 | Anti-IL-12 antibody Ab1 variant Y91M VH/A43Q, Y49A VL (antibody, name in Kabat numbering, V domains shown, Ab1 with VH/VL interface substitutions; Kabat numbering) VH: QVQLVQSGAEVKKPGSSVKVSCKASGGTFSDYYLHWVRQAPGQGLEWMGWIDPENGDTEYAPKFQGRVTITADESTSTAYMELSSLRSEDTAVYMCARNKELRYFDVWGQGTLVTVSS VL: DIVMTQSPLSLPVTPGEPASISCRASQSISINLHWYQQKPGQQPRLLIAFASQSISGVPSRFSGSGSGTDFTLTISSLQPEDFATYYCQQSNSFPLTFGQGTKVEIKR | 1.87
3 | Anti-IL-12 antibody Ab1 variant Y91M VH/- (antibody, name in Kabat numbering, V domains shown, Ab1 with VH/VL interface substitutions; Kabat numbering) VH: QVQLVQSGAEVKKPGSSVKVSCKASGGTFSDYYLHWVRQAPGQGLEWMGWIDPENGDTEYAPKFQGRVTITADESTSTAYMELSSLRSEDTAVYMCARNKELRYFDVWGQGTLVTVSS VL: DIVMTQSPLSLPVTPGEPASISCRASQSISINLHWYQQKPGQAPRLLIYFASQSISGVPSRFSGSGSGTDFTLTISSLQPEDFATYYCQQSNSFPLTFGQGTKVEIKR | 0.827
4 | Anti-IL-12 antibody Ab1 variant Y91M VH/A43Q, L46Q, Y49A VL (antibody, name in Kabat numbering, V domains shown, Ab1 with VH/VL interface substitutions; Kabat numbering) VH: QVQLVQSGAEVKKPGSSVKVSCKASGGTFSDYYLHWVRQAPGQGLEWMGWIDPENGDTEYAPKFQGRVTITADESTSTAYMELSSLRSEDTAVYMCARNKELRYFDVWGQGTLVTVSS VL: DIVMTQSPLSLPVTPGEPASISCRASQSISINLHWYQQKPGQQPRQLIAFASQSISGVPSRFSGSGSGTDFTLTISSLQPEDFATYYCQQSNSFPLTFGQGTKVEIKR | 4.41
5 | Anti-IL-12 antibody Ab1 variant Y91M VH/Y49A, F98L VL (antibody, name in Kabat numbering, V domains shown, Ab1 with VH/VL interface substitutions; Kabat numbering) VH: QVQLVQSGAEVKKPGSSVKVSCKASGGTFSDYYLHWVRQAPGQGLEWMGWIDPENGDTEYAPKFQGRVTITADESTSTAYMELSSLRSEDTAVYMCARNKELRYFDVWGQGTLVTVSS VL: DIVMTQSPLSLPVTPGEPASISCRASQSISINLHWYQQKPGQAPRLLIAFASQSISGVPSRFSGSGSGTDFTLTISSLQPEDFATYYCQQSNSFPLTLGQGTKVEIKR | 1.07
6 | Anti-IL-12 antibody Ab1 variant Y91L VH/- (antibody, name in Kabat numbering, V domains shown, Ab1 with VH/VL interface substitutions; Kabat numbering) VH: QVQLVQSGAEVKKPGSSVKVSCKASGGTFSDYYLHWVRQAPGQGLEWMGWIDPENGDTEYAPKFQGRVTITADESTSTAYMELSSLRSEDTAVYLCARNKELRYFDVWGQGTLVTVSS VL: DIVMTQSPLSLPVTPGEPASISCRASQSISINLHWYQQKPGQAPRLLIYFASQSISGVPSRFSGSGSGTDFTLTISSLQPEDFATYYCQQSNSFPLTFGQGTKVEIKR | 1.21
7 | Anti-IL-12 antibody Ab1 variant Y91A VH/L46Q, Y49A VL (antibody, name in Kabat numbering, V domains shown, Ab1 with VH/VL interface substitutions; Kabat numbering) VH: QVQLVQSGAEVKKPGSSVKVSCKASGGTFSDYYLHWVRQAPGQGLEWMGWIDPENGDTEYAPKFQGRVTITADESTSTAYMELSSLRSEDTAVYACARNKELRYFDVWGQGTLVTVSS VL: DIVMTQSPLSLPVTPGEPASISCRASQSISINLHWYQQKPGQAPRQLIAFASQSISGVPSRFSGSGSGTDFTLTISSLQPEDFATYYCQQSNSFPLTFGQGTKVEIKR | 3.97
8 | Anti-IL-12 antibody Ab1 variant Y91M VH/L46Q, Y49A VL (antibody, name in Kabat numbering, V domains shown, Ab1 with VH/VL interface substitutions; Kabat numbering) VH: QVQLVQSGAEVKKPGSSVKVSCKASGGTFSDYYLHWVRQAPGQGLEWMGWIDPENGDTEYAPKFQGRVTITADESTSTAYMELSSLRSEDTAVYMCARNKELRYFDVWGQGTLVTVSS VL: DIVMTQSPLSLPVTPGEPASISCRASQSISINLHWYQQKPGQAPRQLIAFASQSISGVPSRFSGSGSGTDFTLTISSLQPEDFATYYCQQSNSFPLTFGQGTKVEIKR | 3.83
9 | Anti-IL-12 antibody Ab1 variant Y91A VH/A43Q, Y49A VL (antibody, name in Kabat numbering, V domains shown, Ab1 with VH/VL interface substitutions; Kabat numbering) VH: QVQLVQSGAEVKKPGSSVKVSCKASGGTFSDYYLHWVRQAPGQGLEWMGWIDPENGDTEYAPKFQGRVTITADESTSTAYMELSSLRSEDTAVYACARNKELRYFDVWGQGTLVTVSS VL: DIVMTQSPLSLPVTPGEPASISCRASQSISINLHWYQQKPGQQPRLLIAFASQSISGVPSRFSGSGSGTDFTLTISSLQPEDFATYYCQQSNSFPLTFGQGTKVEIKR | 1.91

Next, values leading:

Row | Kd [nM] | Binder
10 | 1.69 | Anti-IL-12 antibody Ab1 variant Y91M VH/A43Q, P44A, Y49A VL (antibody, name in Kabat numbering, V domains shown, Ab1 with VH/VL interface substitutions; Kabat numbering) VH: QVQLVQSGAEVKKPGSSVKVSCKASGGTFSDYYLHWVRQAPGQGLEWMGWIDPENGDTEYAPKFQGRVTITADESTSTAYMELSSLRSEDTAVYMCARNKELRYFDVWGQGTLVTVSS VL: DIVMTQSPLSLPVTPGEPASISCRASQSISINLHWYQQKPGQQARLLIAFASQSISGVPSRFSGSGSGTDFTLTISSLQPEDFATYYCQQSNSFPLTFGQGTKVEIKR
11 | 1.83 | Anti-IL-12 antibody Ab1 variant Y91M VH/P44A, Y49A VL (antibody, name in Kabat numbering, V domains shown, Ab1 with VH/VL interface substitutions; Kabat numbering) VH: QVQLVQSGAEVKKPGSSVKVSCKASGGTFSDYYLHWVRQAPGQGLEWMGWIDPENGDTEYAPKFQGRVTITADESTSTAYMELSSLRSEDTAVYMCARNKELRYFDVWGQGTLVTVSS VL: DIVMTQSPLSLPVTPGEPASISCRASQSISINLHWYQQKPGQAARLLIAFASQSISGVPSRFSGSGSGTDFTLTISSLQPEDFATYYCQQSNSFPLTFGQGTKVEIKR
12 | 2.32 | Anti-IL-12 antibody Ab1 variant Y91A VH/P44A, Y49A VL (antibody, name in Kabat numbering, V domains shown, Ab1 with VH/VL interface substitutions; Kabat numbering) VH: QVQLVQSGAEVKKPGSSVKVSCKASGGTFSDYYLHWVRQAPGQGLEWMGWIDPENGDTEYAPKFQGRVTITADESTSTAYMELSSLRSEDTAVYACARNKELRYFDVWGQGTLVTVSS VL: DIVMTQSPLSLPVTPGEPASISCRASQSISINLHWYQQKPGQAARLLIAFASQSISGVPSRFSGSGSGTDFTLTISSLQPEDFATYYCQQSNSFPLTFGQGTKVEIKR
13 | 1.79 | Anti-IL-12 antibody Ab1 variant W103M VH/Y49A, Y87L VL (antibody, name in Kabat numbering, Ab1 with VH/VL interface substitutions; Kabat numbering) heavy: not shown light: DIVMTQSPLSLPVTPGEPASISCRASQSISINLHWYQQKPGQAPRLLIAFASQSISGVPSRFSGSGSGTDFTLTISSLQPEDFATYLCQQSNSFPLTFGQGTKVEIKRTVAAPSVFIFPPSDEQLKSGTASVVCLLNNFYPREAKVQWKVDNALQSGNSQESVTEQDSKDSTYSLSSTLTLSKADYEKHKVYACEVTHQGLSSPVTKSFNRGEC
14 | 2.82 | Anti-IL-12 antibody Ab1 variant Y91A VH/Y49A, Y87L VL (antibody, name in Kabat numbering, V domains shown, Ab1 with VH/VL interface substitutions; Kabat numbering) VH: QVQLVQSGAEVKKPGSSVKVSCKASGGTFSDYYLHWVRQAPGQGLEWMGWIDPENGDTEYAPKFQGRVTITADESTSTAYMELSSLRSEDTAVYACARNKELRYFDVWGQGTLVTVSS VL: DIVMTQSPLSLPVTPGEPASISCRASQSISINLHWYQQKPGQAPRLLIAFASQSISGVPSRFSGSGSGTDFTLTISSLQPEDFATYLCQQSNSFPLTFGQGTKVEIKR
15 | 3.83 | Anti-IL-12 antibody Ab1 variant Y91M VH/L46Q, Y49A, Y87M VL (antibody, name in Kabat numbering, V domains shown, Ab1 with VH/VL interface substitutions; Kabat numbering) VH: QVQLVQSGAEVKKPGSSVKVSCKASGGTFSDYYLHWVRQAPGQGLEWMGWIDPENGDTEYAPKFQGRVTITADESTSTAYMELSSLRSEDTAVYMCARNKELRYFDVWGQGTLVTVSS VL: DIVMTQSPLSLPVTPGEPASISCRASQSISINLHWYQQKPGQAPRQLIAFASQSISGVPSRFSGSGSGTDFTLTISSLQPEDFATYMCQQSNSFPLTFGQGTKVEIKR
16 | 3.1 | Anti-IL-12 antibody Ab1 variant Y91M VH/Y49A, Y87L VL (antibody, name in Kabat numbering, V domains shown, Ab1 with VH/VL interface substitutions; Kabat numbering) VH: QVQLVQSGAEVKKPGSSVKVSCKASGGTFSDYYLHWVRQAPGQGLEWMGWIDPENGDTEYAPKFQGRVTITADESTSTAYMELSSLRSEDTAVYMCARNKELRYFDVWGQGTLVTVSS VL: DIVMTQSPLSLPVTPGEPASISCRASQSISINLHWYQQKPGQAPRLLIAFASQSISGVPSRFSGSGSGTDFTLTISSLQPEDFATYLCQQSNSFPLTFGQGTKVEIKR
17 | 0.948 | Anti-IL-12 antibody Ab1 variant Y91A VH/- (antibody, name in Kabat numbering, V domains shown, Ab1 with VH/VL interface substitutions; Kabat numbering) VH: QVQLVQSGAEVKKPGSSVKVSCKASGGTFSDYYLHWVRQAPGQGLEWMGWIDPENGDTEYAPKFQGRVTITADESTSTAYMELSSLRSEDTAVYACARNKELRYFDVWGQGTLVTVSS VL: DIVMTQSPLSLPVTPGEPASISCRASQSISINLHWYQQKPGQAPRLLIYFASQSISGVPSRFSGSGSGTDFTLTISSLQPEDFATYYCQQSNSFPLTFGQGTKVEIKR
